± gives the uncertainty stated by the source.
Test: self-splicing fitness, log relative to wild type (ln ratio); higher = more splicing; Tetrahymena group I intron in knt gene, E. coli kanamycin selection, DiMSum; sequences stand for … in CUCUCU…GGAGGGAAAAGUUAUCAGGCAUGCACCUGGUAGCUAGUCUUUAAACCAAUAGAUUGCAUCGGUUUAAAAGGCAAGACCGUCAAAUUGCGGGAAAGGGGUCAACAGCCGUUCAGUACCAAGUCUCAGGGGAAACUUUGAGAUGGCCUUGCAAAGGGUAUGGUAAUAAGCUGACGGACAUGGUCCUAACCACGCAGCCAAGUCCUAAGUCAACAGAUCUUCUGUUGAUAUGGAUGCAGUUCACAGACUAAAUGUCGGUCGGGGAAGAUGUAUUCUUCUCAUAAGAUAUAGUCGGACCUCUCCUUAAUGGGAGCUAGCGGAUGAAGUGAUGCAACACUGGAGCCGCUGGGAACUAAUUUGUAUGCGAAAGUAUAUUGAUUAGUUUUGGAGUACUCGUGGUCG
In short: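 Pooled colonies went to amplicon sequencing on an Illumina HiSeq 2500 after six replicate transformations. The plates were LB agar with 100 μg/mL carbenicillin, 50 μM IPTG and 0.2% rhamnose, with or without 25 μg/mL kanamycin, incubated overnight at 37°C or 30°C. The E. coli BL21(DE3) library had all eight P1ex-region intron nucleotides randomised, the intron placed in the knt kanamycin-resistance gene on pET-22b(+). DiMSum fitness is the error-weighted combination of replicate fold changes, kanamycin against none, normalised to wild type.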

Sequence | self-splicing fitness (ln) (30 °C) | self-splicing fitness (ln) (37 °C)
GCGAAGCAAUAUUACGUAAA | -1.85 ± 0.16 | -2.12 ± 0.23
GCGAAGCAAUAUUACGUAAC | -2.64 ± 0.14 | -1.44 ± 0.16
GCGAAGCAAUAUUACGUACU | -0.436 ± 0.073 | 0.194 ± 0.09
GCGAAGCAAUAUUACGUAUA | -2.18 ± 0.29 | 0.188 ± 0.43
GCGAAGCAAUAUUACGUCUC | -2.04 ± 0.12 | -1.41 ± 0.14
GCGAAGCAAUAUUACGUGAA | -2.3 ± 0.14 | -0.526 ± 0.14
GCGAAGCAAUAUUACGUGGA | -1.9 ± 0.13 | -2.88 ± 0.21
GCGAAGCAAUAUUACGUUCA | -1.03 ± 0.13 | -0.809 ± 0.16
GCGAAGCAAUAUUACGUUCU | -1.93 ± 0.11 | -0.859 ± 0.11
GCGAAGCAAUAUUACGUUGG | -4.02 ± 0.17 | -2.97 ± 0.18
GCGAAGCAAUAUUACGUUUU | -3.16 ± 0.12 | -2.5 ± 0.17
GCGCAGCAAUAUUACGAAUC | 0.348 ± 0.15 | -0.0791 ± 0.13
GCGCAGCAAUAUUACGAAUU | -1.64 ± 0.14 | -0.932 ± 0.22
GCGCAGCAAUAUUACGAUAA | -1.85 ± 0.11 | -0.604 ± 0.14
GCGCAGCAAUAUUACGAUAU | -1.18 ± 0.078 | -0.433 ± 0.1
GCGCAGCAAUAUUACGCAGA | -3.32 ± 0.22 | -2.5 ± 0.24
GCGCAGCAAUAUUACGCGCG | -3.1 ± 0.32 | –
GCGCAGCAAUAUUACGCGGG | -2.93 ± 0.1 | -1.37 ± 0.097
GCGCAGCAAUAUUACGCGUC | -3.41 ± 0.16 | -2.41 ± 0.2
GCGCAGCAAUAUUACGCGUU | -2.99 ± 0.14 | -2.06 ± 0.15
GCGCAGCAAUAUUACGCUCG | -3.65 ± 0.38 | -2.89 ± 0.34
GCGCAGCAAUAUUACGCUCU | -3.21 ± 0.28 | -1.29 ± 0.23
GCGCAGCAAUAUUACGCUUG | -2.57 ± 0.12 | -1.06 ± 0.12
GCGCAGCAAUAUUACGGACG | -2.17 ± 0.13 | -0.91 ± 0.15
GCGCAGCAAUAUUACGGCCC | -1.21 ± 0.14 | 0.349 ± 0.24

Sequence | self-splicing fitness (ln) (30 °C) | self-splicing fitness (ln) (37 °C)
GCGCAGCAAUAUUACGGGAA | -1.92 ± 0.086 | -0.883 ± 0.066
GCGCAGCAAUAUUACGGGAG | -3.14 ± 0.18 | -1.39 ± 0.13
GCGCAGCAAUAUUACGGUAG | -3.4 ± 0.15 | -1.88 ± 0.14
GCGCAGCAAUAUUACGGUCU | -0.494 ± 0.075 | 0.0551 ± 0.095
GCGCAGCAAUAUUACGGUGU | -2.83 ± 0.14 | -2.47 ± 0.17
GCGCAGCAAUAUUACGUAAG | -0.982 ± 0.066 | -0.943 ± 0.1
GCGCAGCAAUAUUACGUAGU | -0.438 ± 0.06 | 0.18 ± 0.076
GCGCAGCAAUAUUACGUAUU | -0.596 ± 0.081 | -0.709 ± 0.099
GCGCAGCAAUAUUACGUGUA | -0.699 ± 0.071 | -0.0774 ± 0.077
GCGCAGCAAUAUUACGUGUU | -1.06 ± 0.075 | -0.857 ± 0.092
GCGGAGCAAUAUUACGAAGC | -2.45 ± 0.23 | -2.13 ± 0.4
GCGGAGCAAUAUUACGAGUA | -3.21 ± 0.21 | -1.82 ± 0.15
GCGGAGCAAUAUUACGCCUU | – | -2.17 ± 0.49
GCGGAGCAAUAUUACGCGGA | -2.07 ± 0.33 | –
GCGGAGCAAUAUUACGCUCC | – | -0.469 ± 0.39
GCGGAGCAAUAUUACGGAAU | -2.29 ± 0.21 | -3.42 ± 0.35
GCGGAGCAAUAUUACGGAUA | -2.53 ± 0.33 | -1.26 ± 0.25
GCGGAGCAAUAUUACGGGAA | -2.13 ± 0.27 | -2.23 ± 0.35
GCGGAGCAAUAUUACGGGAG | -2.36 ± 0.42 | -0.916 ± 0.48
GCGGAGCAAUAUUACGGGCA | – | -1.1 ± 0.47
GCGGAGCAAUAUUACGGGUA | -4.43 ± 0.42 | -1.72 ± 0.2
GCGGAGCAAUAUUACGGUCG | -3.61 ± 0.26 | -2.41 ± 0.21
GCGGAGCAAUAUUACGUAUU | -3.85 ± 0.25 | -2.48 ± 0.41
GCGUAGCAAUAUUACGAAGA | -1.89 ± 0.21 | -1.51 ± 0.24

Reference: the supplement of paper PMC7877785
